Consider one molecule from CN118050507A.

The target in this assay is O型FMDV流行毒株 (Foot-and-mouth disease virus serotype O). The experiment in a line: cell-based or functional assay.

B1: O型口蹄疫病毒中和抗体Ab1 (VHH)
VHH: QVQLQESGGGLVQPGGSLRLSCAASGTPFSGGSINEISINHLGWYRQAPGKERELVAAITRGGSTYYADSVKGRFAISRDDAKKMVYLQMNSLKPEDTAVYYCNGLRASTAQWEESETTWGQGTQVTVSS
Consider B1, for which the Neu 50 (病毒中和试验) stood at 0.8 µmol/L.
